One block for each binder: values may come before it.
Key:
[1] = molecular target: T1, human c-Met/Fc fusion protein (R&D Systems) (human, UniProt P08581 25-932); experiment: ELISA, human c-Met/Fc fusion protein coated on the plate, hybridoma culture supernatant
T1 construct: Bought reagent; treated here as the same reagent; also called c-Met-Fc (#358-MT/CF, R&D Systems); human c-Met/Fc protein; not shown: Fc part of the bought fusion protein
Protocol: The hybridoma cell culture obtained in Reference Example 1.1.2 was added in an amount of 50 μL to each well of the plates and incubated for 1 hour. The cells remaining unreacted were washed out with a sufficient amount of Tris-buffered saline and Tween 20 (TBST). Goat anti-mouse IgG-horseradish peroxidase (HRP) was added to the plates and incubated for 1 hour at room temperature. The plates were washed with a sufficient amount of TBST, followed by reacting the peroxidase with a substrate (OPD). Absorbance at 450 nm was measured on an ELISA reader.

[2] = molecular target: T1, human c-Met/Fc fusion protein (R&D …); experiment: SPR, Biacore T100; antibody captured by human Fab binder on CM5 chip, c-Met-Fc injected
Protocol: To confirm whether the prepared PEG-introduced antibodies containing PEG with various molecular weights can maintain the binding affinity to the antigen, the binding affinity of the prepared PEG-introduced antibodies to c-Met was measured using Biacore T100(GE) and compared with that of an antibody with no PEG (Ab).
In particular, human Fab binder (GE Healthcare) was fixed on a surface of CM5 chip (#BR-1005-30, GE) according to the manufacturer's manual. About 90 to 120 Ru of each of the PEG-introduced antibodies was captured, and c-Met-Fc (#358-MT/CF, R&D Systems) was injected at various concentrations into the captured PEG-introduced antibody. 10 mM Glycine-HCl (pH 1.5) solution was injected thereto to regenerate the surface. In order to measure affinity, the data obtained from this experiment was fitted using BIAevaluation software (GE Healthcare, Biacore T100 evaluation software).

T1 sequence (P08581 25-932 limits assumed): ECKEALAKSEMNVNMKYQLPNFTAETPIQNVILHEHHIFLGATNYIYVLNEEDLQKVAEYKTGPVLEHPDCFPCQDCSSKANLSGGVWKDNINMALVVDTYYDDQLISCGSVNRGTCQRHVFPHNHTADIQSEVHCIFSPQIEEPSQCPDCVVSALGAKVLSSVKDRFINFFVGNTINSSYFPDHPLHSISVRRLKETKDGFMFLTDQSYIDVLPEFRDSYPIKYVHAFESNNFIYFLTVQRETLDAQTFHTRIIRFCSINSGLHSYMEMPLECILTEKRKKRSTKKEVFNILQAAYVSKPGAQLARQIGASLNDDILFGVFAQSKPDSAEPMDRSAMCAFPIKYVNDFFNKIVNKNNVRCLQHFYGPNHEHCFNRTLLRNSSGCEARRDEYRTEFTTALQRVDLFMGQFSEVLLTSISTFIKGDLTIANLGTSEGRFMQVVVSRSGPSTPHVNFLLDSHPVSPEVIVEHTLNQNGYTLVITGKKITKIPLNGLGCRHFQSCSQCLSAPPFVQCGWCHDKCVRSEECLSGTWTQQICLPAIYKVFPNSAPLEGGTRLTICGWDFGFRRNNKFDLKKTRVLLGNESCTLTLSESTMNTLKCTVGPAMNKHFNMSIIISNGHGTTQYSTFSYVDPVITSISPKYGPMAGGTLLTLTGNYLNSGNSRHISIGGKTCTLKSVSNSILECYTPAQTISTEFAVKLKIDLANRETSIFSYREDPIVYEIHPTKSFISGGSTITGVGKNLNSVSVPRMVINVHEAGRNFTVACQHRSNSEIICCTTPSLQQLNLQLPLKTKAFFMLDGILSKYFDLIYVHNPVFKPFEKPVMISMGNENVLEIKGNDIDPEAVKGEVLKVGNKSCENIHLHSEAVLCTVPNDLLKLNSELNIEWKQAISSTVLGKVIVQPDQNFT

B1: AbF46, mouse monoclonal antibody to c-Met (hybridoma KCLRF-BP-00220) (antibody, V domains shown)
VH: EVKLVESGGGLVQPGGSLRLSCATSGFTFTDYYMSWVRQPPGKALEWLGFIRNKANGYTTEYSASVKGRFTISRDNSQSILYLQMDTLRAEDSATYYCARDNWFAYWGQGTLVTVSA
VL: DILMTQSPSSLTVSAGEKVTMSCKSSQSLLASGNQNNYLAWHQQKPGRSPKMLIIWASTRVSGVPDRFIGSGSGTDFTLTINSVQAEDLAVYYCQQSYSAPLTFGAGTKLELK
notes: Tested as hybridoma culture supernatant in the selection ELISA; also called mouse antibody AbF46
binding result [1]: binds

B3: PEG-introduced antibody L3-1Y/IgG2 with 20 kDa polyethyleneglycol (antibody, V domains shown)
VH: EVQLVESGGGLVQPGGSLRLSCAASGFTFTDYYMSWVRQAPGKGLEWLGFIRNKANGYTTEYSASVKGRFTISRDNSKNTLYLQMNSLRAEDTAVYYCARDNWFAYWGQGTLVTVSS
VL: DIQMTQSPSSLSASVGDRVTITCKSSQSLLASGNQNNYLAWYQQKPGKAPKMLIIWASTRVSGVPSRFSGSGSGTDFTLTISSLQPEDFATYYCQQSYSRPYTFGQGTKVEIKR
modifications: see heavy chain: the PEG may stand at the N-terminus of a light chain instead; 20 kDa methoxypolyethyleneglycol at the N-terminus of the antibody (N-terminus of a heavy chain or of a light chain; which one is not resolved); mono-PEG per paragraph 213
notes: also called 20kPEG Ab; mono-PEG antibody (20 kDa)
Kd [2]: 72.9 pM

B5: PEG-introduced antibody L3-1Y/IgG2 with 10 kDa polyethyleneglycol (antibody, V domains shown)
VH: B3 VH
VL: B3 VL
modifications: see heavy chain: the PEG may stand at the N-terminus of a light chain instead; 10 kDa methoxypolyethyleneglycol at the N-terminus of the antibody (N-terminus of a heavy chain or of a light chain; which one is not resolved); mono-PEG per paragraph 213
notes: also called 10kPEG Ab; mono-PEG antibody (10 kDa)
Kd [2]: 86 pM

The remaining binders from weak to strong by Kd [2], led by results:

Kd [2]: 82.3 pM
B4: anti-c-Met antibody L3-1Y-IgG2 (huAbF46-H4-A1 (IgG2 Fc)) (antibody, V domains shown)
VH: B3 VH
VL: B3 VL
notes: also called antibody with no PEG

Kd [2]: 61.9 pM
B2: PEG-introduced antibody L3-1Y/IgG2 with 30 kDa polyethyleneglycol (antibody, V domains shown)
VH: B3 VH
VL: B3 VL
modifications: see heavy chain: the PEG may stand at the N-terminus of a light chain instead; 30 kDa methoxypolyethyleneglycol at the N-terminus of the antibody (N-terminus of a heavy chain or of a light chain; which one is not resolved); mono-PEG per paragraph 213
notes: also called 30kPEG Ab; mono-PEG antibody (30 kDa)
